Where no end group is shown, it is not given here.
Legend:
[1] = target: T1, human chemokine (C-X-C motif) receptor 3 (Homo sapiens, UniProt P49682); experiment: Positive allosteric modulator assay method 1 (PAM1), Tango CXCR3-bla U2OS; format: cell-based; conditions: retro-inverso peptide vs SG-3-00802
T1 construct: TEV protease site; Gal4-VP16 transcription factor ('Ga14-VP16' [sic]); Tango cell line; host or cells: Tango GPCR-bla U2OS
T1 sequence (P49682 1-368): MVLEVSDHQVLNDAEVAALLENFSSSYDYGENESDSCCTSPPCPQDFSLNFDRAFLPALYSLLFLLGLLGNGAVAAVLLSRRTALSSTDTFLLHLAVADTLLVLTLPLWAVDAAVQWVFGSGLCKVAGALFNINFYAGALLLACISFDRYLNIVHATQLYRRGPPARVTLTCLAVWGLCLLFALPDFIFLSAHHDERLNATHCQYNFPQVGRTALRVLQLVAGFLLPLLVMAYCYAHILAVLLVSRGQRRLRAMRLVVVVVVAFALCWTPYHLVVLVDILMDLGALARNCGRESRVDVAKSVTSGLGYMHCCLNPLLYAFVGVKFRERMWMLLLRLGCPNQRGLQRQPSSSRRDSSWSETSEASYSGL
Excerpt: To assay positive allosteric modulator activity of SG-3-00802 (SEQ ID NO: 1) and SG-3-006683 in CXCR3 cell lines, the cell line Tango™ CXCR3-bla U2OS was used in a positive allosteric modulator assay with two different methods, as described below.
(§1) Tango™ CXCR3-bla U2OS cells contain the human chemokine (C-X-C motif) receptor 3 linked to a TEV protease site and a Ga14-VP16 transcription factor stably integrated into the Tango™ GPCR-bla U2OS cell line. This parental cell line stably expresses a beta-arrestin/TEV protease fusion protein and the beta-lactamase reporter gene under the control of a UAS response element. The Tango™ CXCR3-bla U2OS cells have been functionally validated for a response to I-TAC (CXCL11).
In positive allosteric modulator assay method 1 (PAM1), cells were diluted in Assay Media to an appropriate cell density and were added to the assay plate. Peptides were added at increasing concentrations (1 nM-20 mcM) to the cells in the assay plate and incubated for 30 minutes. Ligand (CXCL9, CXCL10, or CXCL11) was added at an EC20 to all wells containing test compound. The assay plate was incubated for 16 hours at 37° C. Substrate Loading Solution was added to the assay plate and incubated for 2 hours at room temperature, in the dark. The assay plate was read on a fluorescence plate reader and the data was analyzed. PAM activity was calculated as follows:
% of PAM=((Test compound−Unstimulated)/(Stimulated−Unstimulated))×100.

[2] = system: Unstimulated human T cells; experiment: Transwell T cell migration towards CXCR3 ligands; format: cell-based; conditions: CXCL11, 2.5 hours
Protocol: T cell migration towards CXCR3 ligands in the presence of SG-3-00802 and SG-3-06683 was tested using a Transwell migration assay. Suboptimal concentrations of each ligand (CXCR3 ligands CXCL9, CXCL10, and CXCL11) were added to the bottom of the transwell with increasing doses of SG-3-00802 or SG-3-006683. An optimal concentration of ligand was used as positive control, as indicated in the graphs.
Unstimulated human T cells were resuspended in AIM V serum-free media, then were added to the top chamber of a […] polycarbonate Transwell insert and incubated with the indicated concentrations of the ligands and peptides in the bottom chamber for 2.5 hours at 37° C. T cells that migrated to the bottom chamber were collected, stained with anti-CD3 antibody, and counted using Beckman Coulter Cytoflex flow cytometer. 123count eBeads counting beads were added to each of the wells for obtaining the absolute cell counts.

CXCR3 = target: T2, CXCR3 (Homo sapiens, UniProt P49682); experiment: Positive allosteric modulator assay method 2 (PAM2), CXCR3-bla U2OS; format: cell-based; set-up: TEV protease site; Gal4-VP16 transcription factor ('Ga14-VP16' [sic]); Tango cell line; host or cells: Tango GPCR-bla U2OS; conditions: varying CXCL11, fixed peptide concentration
T2 sequence (P49682 1-368): T1 sequence (P49682 1-368)
Excerpt: as §1
Positive allosteric modulation was confirmed with an additional test method using a dose response setting for CXCL11. In positive allosteric modulator assay method 2 (PAM2), cells were diluted in Assay Media to an appropriate cell density, and were added to the assay plate. CXCR3-bla U2OS were stimulated with varying concentrations of CXCL11 ligand and a pre-determined fixed concentration of either SG-3-00802 or SG-3-06683 and incubated for 30 minutes. Ligand (CXCL9, CXCL10, or CXCL11) was added at increasing concentrations to wells containing the test compound.

[3] = target: T3, human chemokine (C-X-C motif) receptor 3 (human, UniProt P49682 1-368); experiment: hit of DualSystems LRC-TriCEPS capture and SelectScreen reporter assay, confirmed in PathHunter beta-arrestin GPCR panel
T3 construct: whole, on cells; The PathHunter gpcrMAX panel uses a different, undescribed construct; also called CXCR3
T3 sequence (looked up): T1 sequence (P49682 1-368)

| Molecule | Activation of CXCR3 [1] | T cell migration to suboptimal level of ligand [2] | activity of CXCL11 on the CXCR3 receptor (PAM2) (CXCR3) | binding result [3] |
| --- | --- | --- | --- | --- |
| GQRQKHKPNECIVMVRGKRRIIKCKECMPKVSPRVKM (not fully specified; cysteine pairing not given here) [SG-3-06683] | maintained | increased migration | enhanced the activity of the endogenous ligand CXCL11 | – |
| MKVRPSVKPMCEKCKIIRRKGRVMVICENPKHKQRQG (also called PEP802) [SG-3-00802] | – | – | – | binds |

Reference: patent publication US20240317816A1, “PEPTIDES FOR IMMUNOTHERAPY” (Genevive, Inc., priority 2021, published 2024)
